Here are results for four compounds from publication PMC8878318, “DogCatcher allows loop-friendly protein-protein ligation” (Cell Chemical Biology, 2022).

In one experiment the target is T1, Gre2p (Saccharomyces cerevisiae, UniProt Q12068).
T1 construct: gene GRE2; wild-type Gre2p without loop insertion, pET28-Gre2p synthetic codon-optimised gene, expressed in E. coli BL21 DE3 RIPL, Ni-NTA purified
T1 sequence (Q12068 1-342): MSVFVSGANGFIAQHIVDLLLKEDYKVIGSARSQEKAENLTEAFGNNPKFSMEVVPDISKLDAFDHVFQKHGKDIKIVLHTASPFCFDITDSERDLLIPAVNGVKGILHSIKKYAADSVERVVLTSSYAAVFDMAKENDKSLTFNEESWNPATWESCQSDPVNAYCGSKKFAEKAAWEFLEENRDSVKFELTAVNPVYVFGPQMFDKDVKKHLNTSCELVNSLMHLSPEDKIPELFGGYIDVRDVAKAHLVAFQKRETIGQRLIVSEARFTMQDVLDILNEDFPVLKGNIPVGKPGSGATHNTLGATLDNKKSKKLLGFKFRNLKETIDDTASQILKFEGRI
The experiment is described as follows: NADPH oxidation, absorbance at […] nm. The class given is biochemical. The following applies: 1.5 mM isovaleraldehyde; 0.25 mM NADPH; 100 mM potassium phosphate pH 7.4; 25 °C.

Experiment [1] has as its target Gre2p-DogTag Loop B (Saccharomyces cerevisiae | Streptococcus pneumoniae TIGR4) (UniProt Q12068). The experiment is described as follows: isopeptide bond formation followed by SDS-PAGE with Coomassie densitometry; 5 μM of each protein in solution, PBS pH 7.5 (pH 7.4 in p-0004), 25°C; second-order rate constant from 1/[Catcher] against time.
For experiment [2], the target named is sfGFP-DogTag Loop A (Streptococcus pneumoniae TIGR4). Described as above.
The target of experiment [3] is AviTag-DogTag-MBP (Streptococcus pneumoniae TIGR4). The description is as above.
Experiment [4] deals with HaloTag7SS-DogTag (Streptococcus pneumoniae TIGR4). In words: isopeptide bond formation followed by SDS-PAGE with Coomassie densitometry; reaction toward completion: 10 or 20 μM DogCatcher with 10 or 20 μM HaloTag7SS-DogTag, PBS pH 7.5, 25°C, 200 min.
Experiment [5] has as its target AviTag-R2Tag-MBP (Streptococcus pneumoniae TIGR4). In words: isopeptide bond formation followed by SDS-PAGE with Coomassie densitometry; 5 μM of each protein in solution, PBS pH 7.5 (pH 7.4 in p-0004), 25°C; second-order rate constant from 1/[Catcher] against time.
The target of experiment [6] is Gre2p-SpyTag003 Loop B (Saccharomyces cerevisiae) (UniProt Q12068). The experiment is described as above.
For the next experiment, the target named is sfGFP-SpyTag003 Loop A. The description is as above.

For the compound `NC(=O)C1=CN([C@@H]2O[C@H](COP(=O)(O)OP(=O)(O)OC[C@H]3O[C@@H](n4cnc5c(N)ncnc54)[C@H](OP(=O)(O)O)[C@@H]3O)[C@@H](O)[C@H]2O)C=CC1` [NADPH], the “NADPH oxidation, absorbance at 340 nm” value at Gre2p is “Reduction of isovaleraldehyde to isoamyl alcohol by Gre2p is nicotinamide adenine dinucleotide phosphate (NADPH) dependent”.
Regarding DogCatcher (designed binder), the second-order rate constant of covalent reaction was determined as 850 M⁻¹ s⁻¹ in experiment [1], 1000 M⁻¹ s⁻¹ in experiment [2] and 760 M⁻¹ s⁻¹ in experiment [3]. In experiment [4], this compound showed a percent of DogCatcher reacted (2-fold excess of HaloTag7SS-DogTag) of 98%. Also, the percent of HaloTag7SS-DogTag reacted (2-fold excess of DogCatcher) in experiment [4] came to 98%.
As to R2Catcher (domain or fragment), the values for the second-order rate constant of covalent reaction in experiment [5] and in experiment [3] were 3 M⁻¹ s⁻¹ and 30 M⁻¹ s⁻¹, respectively.
Regarding SpyCatcher003 (designed binder), the results for the second-order rate constant of covalent reaction (in experiment [6]; in the experiment with sfGFP-SpyTag003 Loop A) were 156 M⁻¹ s⁻¹ and 87 M⁻¹ s⁻¹, respectively.
